B1: Hz5C2.9/Zalu bsAb bispecific antibody molecule (bispecific antibody, human IgG1, kappa)
heavy 1: not shown
light 1: not shown
heavy 2: not shown
light 2: EIVLTQSPGTLSLSPGERATLSCRSSQSLVHSQGITYLDWYQQKPGQAPRLLIYKVSNRFSGIPDRFSGSGSGTDFTLTISRLEPEDFAVYYCSQGTHVPPWTFGGGTKVEIKRTVAAPSVFIFPPSDEQLKSGTASVVCLLNNFYPREAKVQWKVDNALQSGNSQESVTEQDSKDSTYSLSSTLTLSKADYEKHKVYACEVTHQGLSSPVTKSFNRGEC
notes: IgG1-like, four polypeptide chains, Innobody heterodimer Fc mutations; low fucose (GlymaxX)
B2: Hz19A2.25/Zalu bsAb bispecific antibody molecule (bispecific antibody, human IgG1, kappa)
heavy 1: not shown
light 1: not shown
heavy 2: not shown
light 2: EIVLTQSPATLSLSPGERATLSCSVSSSVQSNYLYWYQQKPGQAPRLLIYGTSNLASGIPARFSGSGSGTDFTLTISSLEPEDFAVYYCYQWSSYPFTFGQGTKLEIKRTVAAPSVFIFPPSDEQLKSGTASVVCLLNNFYPREAKVQWKVDNALQSGNSQESVTEQDSKDSTYSLSSTLTLSKADYEKHKVYACEVTHQGLSSPVTKSFNRGEC
notes: as for B1
B3: Hz20G5.26/Zalu bsAb bispecific antibody molecule (bispecific antibody, human IgG1, kappa)
heavy 1: not shown
light 1: not shown
heavy 2: not shown
light 2: DIQLTQSPSFLSASVGDRVTITCSASSSVSYIHWYQQKPGKAPKRWIYDTSRLASGVPSRFSGSGSGTEFTLTISSLQPEDFATYYCQQWSSAPLTFGGGTKVEIKRTVAAPSVFIFPPSDEQLKSGTASVVCLLNNFYPREAKVQWKVDNALQSGNSQESVTEQDSKDSTYSLSSTLTLSKADYEKHKVYACEVTHQGLSSPVTKSFNRGEC
notes: also called anti-B7-H3/EGFR bispecific antibody

Tests used:
[1] = biological target: T1, human B7H3 (B73-H52E2, Acro Biosystem) (human, UniProt Q5ZPR3-2 29-245); test: BLI (Octet Red96e), antibody captured on AHC sensor, human B7H3 100 nM in solution
T1 construct: also called CD276; antigen B
T1 sequence (looked up): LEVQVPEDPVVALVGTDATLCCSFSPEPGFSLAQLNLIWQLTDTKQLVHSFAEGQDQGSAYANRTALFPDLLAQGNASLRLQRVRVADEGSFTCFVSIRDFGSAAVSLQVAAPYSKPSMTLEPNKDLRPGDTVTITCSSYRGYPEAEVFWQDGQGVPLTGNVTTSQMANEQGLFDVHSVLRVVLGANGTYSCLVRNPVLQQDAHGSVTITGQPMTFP

[2] = biological target: T2, human EGFR (EGR-H5222, Acro Biosystem) (human, UniProt P00533 25-645); test: BLI (Octet Red96e), antibody captured on AHC sensor, human EGFR 100 nM in solution
T2 construct: Bought reagent; also called antigen A

[3] = biological target: EGFR Del19 (amplified) on H1650 cells (UniProt P00533 25-1210); test: cell-based or functional assay
[4] = biological target: EGFR L858R/T790M on H1975 cells (UniProt P00533 25-1210, limits assumed); test: cell-based or functional assay
[5] = biological target: EGFR, wild type, on tumour cells (H508, TE-1, Colo-680N, H292, H322, H358; amplified in SK-MES-1 and H1703) (UniProt P00533 25-1210, limits assumed); test: cell-based or functional assay
[6] = biological target: EGFR R521K/Y1069C on CCK-81 cells (UniProt P00533 25-1210, limits assumed); test: cell-based or functional assay
[7] = biological target: EGFR R521K on HT-55 and LS180 cells (UniProt P00533 25-1210, limits assumed); test: cell-based or functional assay

Row | Binder | Kd [1] [nM] | koff [1] [s⁻¹] | kon [1] [M⁻¹ s⁻¹] | Kd [2] [nM] | koff [2] [s⁻¹] | kon [2] [M⁻¹ s⁻¹] | IC50(nM), proliferation inhibition, H1650 cells [3] [nM] | IC50(nM), proliferation inhibition, H1975 cells [4] [nM] | IC50(nM), proliferation inhibition, Colo-680N cells [5] [nM] | IC50(nM), proliferation inhibition, H292 cells [5] [nM] | IC50(nM), proliferation inhibition, H508 cells [5] [nM] | IC50(nM), proliferation inhibition, SK-MES-1 cells (EGFR amplification) [5] [nM] | IC50(nM), proliferation inhibition, TE-1 cells [5] [nM] | IC50(nM), proliferation inhibition, CCK-81 cells [6] [nM] | IC50(nM), proliferation inhibition, HT-55 cells [7] [nM] | IC50(nM), proliferation inhibition, LS180 cells [7] [nM]
1 | B1 | 8.25 | 0.00352 | 427000 | 4.69 | 0.00124 | 264000 | – | – | – | – | – | – | – | – | – | –
2 | B2 | 6.73 | 0.00219 | 326000 | 4.19 | 0.00121 | 289000 | – | – | – | – | – | – | – | – | – | –
3 | B3 | 2.48 | – | – | 4.59 | – | – | 4.86 | 0.99 | 12.3 | 57.8 | 1.08 | 0.4 | 16 | 0.24 | 0.14 | 1.33

Reference: patent US20250381269A1 (FORTVITA BIOLOGICS SINGAPORE PTE, published 2025)
